Assay results published in patent publication US20200079833A1 (AstraZeneca / MedImmune, published 2020).
Starred links: 1 amine or outer side, 2 acyl side, 3 side chain; linkers in the order of their positions; H or OH if unused. Non-standard residues stand in square brackets, D forms with d. Groups on a side chain read outwards from the residue. Primed or numbered codes have the meaning given here. No end group written: not given here. *: point of attachment. γGlu = O=C(O)[C@H](CCC(=O)[*:2])N[*:1]; Stearoyl = CCCCCCCCCCCCCCCCCC(=O)*; Palmitoyl = CCCCCCCCCCCCCCCC(=O)*; αMeF = C[C@](N)(Cc1ccccc1)C(=O)O; αMeK = C[C@](N)(CCCCN)C(=O)O; αMeS = C[C@](N)(CO)C(=O)O; PEG2′ = not defined here; Aib = CC(C)(N)C(=O)O

T1: glucose-dependent insulinotropic peptide (gastric inhibitory polypeptide) receptor (human, UniProt P48546 22-466)
T1 sequence (looked up): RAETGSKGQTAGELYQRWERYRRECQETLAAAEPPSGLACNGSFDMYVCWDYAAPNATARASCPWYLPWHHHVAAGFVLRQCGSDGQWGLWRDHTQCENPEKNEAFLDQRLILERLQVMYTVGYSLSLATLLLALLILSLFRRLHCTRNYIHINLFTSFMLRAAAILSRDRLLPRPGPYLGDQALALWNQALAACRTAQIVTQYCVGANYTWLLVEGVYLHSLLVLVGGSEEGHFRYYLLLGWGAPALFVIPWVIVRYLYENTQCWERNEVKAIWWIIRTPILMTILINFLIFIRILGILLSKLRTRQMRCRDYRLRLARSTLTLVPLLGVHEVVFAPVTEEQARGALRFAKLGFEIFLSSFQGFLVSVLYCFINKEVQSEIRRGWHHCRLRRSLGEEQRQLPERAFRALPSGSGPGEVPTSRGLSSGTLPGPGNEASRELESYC

B1: SEQ ID NO 70 (peptide)
peptide: H[Aib]EGS[αMeF]TSDV[αMeS]S[αMeF]LEGEAA[αMeK]E[αMeF]IA[αMeF]VV[αMeK]GK([γGlu-Palmitoyl])-NH2
modifications: N-terminus assumed
SMILES: CCCCCCCCCCCCCCCC(=O)N[C@@H](CCC(=O)NCCCC[C@H](NC(=O)CNC(=O)[C@](C)(CCCCN)NC(=O)[C@@H](NC(=O)[C@@H](NC(=O)[C@](C)(Cc1ccccc1)NC(=O)[C@H](C)NC(=O)[C@@H](NC(=O)[C@](C)(Cc1ccccc1)NC(=O)[C@H](CCC(=O)O)NC(=O)[C@](C)(CCCCN)NC(=O)[C@H](C)NC(=O)[C@H](C)NC(=O)[C@H](CCC(=O)O)NC(=O)CNC(=O)[C@H](CCC(=O)O)NC(=O)[C@H](CC(C)C)NC(=O)[C@](C)(Cc1ccccc1)NC(=O)[C@H](CO)NC(=O)[C@](C)(CO)NC(=O)[C@@H](NC(=O)[C@H](CC(=O)O)NC(=O)[C@H](CO)NC(=O)[C@@H](NC(=O)[C@](C)(Cc1ccccc1)NC(=O)[C@H](CO)NC(=O)CNC(=O)[C@H](CCC(=O)O)NC(=O)C(C)(C)NC(=O)[C@@H](N)Cc1c[nH]cn1)[C@@H](C)O)C(C)C)[C@@H](C)CC)C(C)C)C(C)C)C(N)=O)C(=O)O
B2: SEQ ID NO 9 (peptide)
peptide: H[Aib]EGS[αMeF]SSEVSS[αMeF]LEGEAA[αMeK]E[αMeF]IA[αMeF]VV[αMeK]GG-NH2
modifications: N-terminus assumed
SMILES: CC[C@H](C)[C@H](NC(=O)[C@](C)(Cc1ccccc1)NC(=O)[C@H](CCC(=O)O)NC(=O)[C@](C)(CCCCN)NC(=O)[C@H](C)NC(=O)[C@H](C)NC(=O)[C@H](CCC(=O)O)NC(=O)CNC(=O)[C@H](CCC(=O)O)NC(=O)[C@H](CC(C)C)NC(=O)[C@](C)(Cc1ccccc1)NC(=O)[C@H](CO)NC(=O)[C@H](CO)NC(=O)[C@@H](NC(=O)[C@H](CCC(=O)O)NC(=O)[C@H](CO)NC(=O)[C@H](CO)NC(=O)[C@](C)(Cc1ccccc1)NC(=O)[C@H](CO)NC(=O)CNC(=O)[C@H](CCC(=O)O)NC(=O)C(C)(C)NC(=O)[C@@H](N)Cc1c[nH]cn1)C(C)C)C(=O)N[C@@H](C)C(=O)N[C@@](C)(Cc1ccccc1)C(=O)N[C@H](C(=O)N[C@H](C(=O)N[C@@](C)(CCCCN)C(=O)NCC(=O)NCC(N)=O)C(C)C)C(C)C

Assays:
Experiment in all cases: cell-based or functional assay
glucagon receptor = glucagon receptor (human, UniProt P47871 26-477)
GLP-1 receptor = GLP-1 receptor (human, UniProt P43220 24-463)
[1] = biological target: T1, glucose-dependent insulinotropic …

Chain of glucagon receptor (P47871 26-477): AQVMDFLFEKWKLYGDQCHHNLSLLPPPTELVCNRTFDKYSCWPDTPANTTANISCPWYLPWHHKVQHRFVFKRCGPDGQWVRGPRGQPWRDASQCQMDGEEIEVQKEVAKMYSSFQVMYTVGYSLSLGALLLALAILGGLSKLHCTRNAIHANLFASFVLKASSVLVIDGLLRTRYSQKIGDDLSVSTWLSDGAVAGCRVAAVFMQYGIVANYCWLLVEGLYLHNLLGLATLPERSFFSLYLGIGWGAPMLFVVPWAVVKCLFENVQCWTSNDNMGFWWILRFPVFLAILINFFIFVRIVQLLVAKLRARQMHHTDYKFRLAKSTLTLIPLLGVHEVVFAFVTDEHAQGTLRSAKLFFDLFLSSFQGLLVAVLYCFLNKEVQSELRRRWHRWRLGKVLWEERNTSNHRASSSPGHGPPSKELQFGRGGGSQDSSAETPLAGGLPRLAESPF

Row | Binder | Primary assay EC50 (cAMP), n1 (glucagon receptor) | Primary assay EC50 (cAMP), n2 (glucagon receptor) | Primary assay EC50 (cAMP), Mean pM GLP-1R (GLP-1 receptor) | Primary assay EC50 (cAMP), n1 (GLP-1 receptor) | Primary assay EC50 (cAMP), n2 (GLP-1 receptor) | Primary assay EC50 (cAMP), n1 [1] | Primary assay EC50 (cAMP), n2 [1]
1 | H[Aib]EGS[αMeF]TSDVSK([PEG2′-PEG2′-γGlu-Stearoyl])YLEGEAA[αMeK]E[αMeF]IA[αMeF]VVEGG-NH2 [SEQ ID NO 60] | 25 nM | 25 nM | 49 pM | 0.049 nM | 0.05 nM | 25 nM | 25 nM
2 | H[Aib]EGS[αMeF]TSDVSK([PEG2′-PEG2′-PEG2′-Stearoyl])YLEGEAA[Aib]E[αMeF]IA[αMeF]VVEGG-NH2 [SEQ ID NO 63] | 25.7 nM | 25.7 nM | 2.9 pM | 0.00321 nM | 0.00255 nM | 25.7 nM | 25.7 nM
3 | H[Aib]EGS[αMeF]TSDVSK([PEG2′-PEG2′-γGlu-Stearoyl])YLEGEAAEE[αMeF]IA[αMeF]VVEGG-NH2 [SEQ ID NO 58] | 25 nM | 25 nM | 4720 pM | 5.2 nM | 4.3 nM | 25 nM | 25 nM
4 | H[Aib]EGS[αMeF]TSDVSK([PEG2′-PEG2′-PEG2′-Stearoyl])YLEGEAAEE[αMeF]IA[αMeF]VVEGG-NH2 [SEQ ID NO 62] | 25 nM | 25 nM | 1.9 pM | 0.002 nM | 0.0018 nM | 25 nM | 25 nM
5 | H[Aib]EGS[αMeF]TSDV[αMeS]S[αMeF]LEGEAA[αMeK]EFIK([PEG2′-PEG2′-γGlu-Stearoyl])WVVEGG-NH2 [SEQ ID NO 68] | 25 nM | 25 nM | 18.8 pM | 0.0221 nM | 0.0155 nM | 25 nM | 25 nM
6 | H[Aib]EGS[αMeF]TSDVSK([PEG2′-PEG2′-PEG2′-Stearoyl])YLEGEAA[αMeK]E[αMeF]IA[αMeF]VVEGG-NH2 [SEQ ID NO 64] | 25 nM | 25 nM | 1.3 pM | 0.0014 nM | 0.0012 nM | 25 nM | 25 nM
7 | H[Aib]EGS[αMeF]TSDVSK([PEG2′-PEG2′-γGlu-Stearoyl])YLEGEAA[Aib]E[αMeF]IA[αMeF]VVEGG-NH2 [SEQ ID NO 59] | 25.6 nM | 25.6 nM | 211 pM | 0.243 nM | 0.179 nM | 25.6 nM | 25.6 nM
8 | B1 | 27 nM | 27 nM | 83 pM | 0.074 nM | 0.092 nM | 27 nM | 27 nM
9 | H[Aib]EGS[αMeF]TSDV[αMeS]S[αMeF]LEGEAAAEFIK([PEG2′-PEG2′-γGlu-Stearoyl])WVVEGG-NH2 [SEQ ID NO 69] | 25.5 nM | 25.5 nM | 53 pM | 0.0661 nM | 0.0399 nM | 25.5 nM | 25.5 nM
10 | H[Aib]EGS[αMeF]TSDVSK([PEG2′-PEG2′-PEG2′-Stearoyl])YLEGEAAKE[αMeF]IA[αMeF]VVEGG-NH2 [SEQ ID NO 61] | 25 nM | 25 nM | 0.9 pM | 0.00085 nM | 0.00091 nM | 25 nM | 25 nM
11 | H[Aib]EGS[αMeF]TSDV[αMeS]S[αMeF]LEGEAAK([PEG2′-PEG2′-PEG2′-Stearoyl])E[αMeF]IA[αMeF]VVKGG-NH2 [SEQ ID NO 56] | 26 nM | 26 nM | 3.2 pM | 0.0029 nM | 0.0035 nM | 26 nM | 26 nM
12 | H[Aib]EGS[αMeF]TSDV[αMeS]S[αMeF]LEGEAAKEFIK([PEG2′-PEG2′-γGlu-Stearoyl])WVVEGG-NH2 [SEQ ID NO 65] | 25.1 nM | 25.1 nM | 16.9 pM | 0.0197 nM | 0.014 nM | 25.1 nM | 25.1 nM
13 | B2 | 29 nM | 29 nM | 1200 pM | 1.2 nM | 1.2 nM | 29 nM | 29 nM
14 | H[Aib]EGS[αMeF]TSDV[αMeS]S[αMeF]LEGEAAEEFIK([PEG2′-PEG2′-γGlu-Stearoyl])WVVEGG-NH2 [SEQ ID NO 66] | 25.1 nM | 25.1 nM | 150 pM | 0.203 nM | 0.0979 nM | 25.1 nM | 25.1 nM
15 | H[Aib]EGS[αMeF]TSDVSK([PEG2′-PEG2′-γGlu-Stearoyl])YLEGEAAKE[αMeF]IA[αMeF]VVEGG-NH2 [SEQ ID NO 57] | 25 nM | 25 nM | 153 pM | 0.14 nM | 0.17 nM | 25 nM | 25 nM
16 | H[Aib]EGS[αMeF]TSDV[αMeS]S[αMeF]LEGEAA[Aib]EFIK([PEG2′-PEG2′-γGlu-Stearoyl])WVVEGG-NH2 [SEQ ID NO 67] | 25.4 nM | 25.4 nM | 60.1 pM | 0.0721 nM | 0.048 nM | 25.4 nM | 25.4 nM
